B1: glmS ribozyme (parent)
chain: AUAAAAGCGCCAGAACUACAGAAAUGUAGUUGACGAGGAGGAGGUUUAUCGAAUUUUCGGCGGAUGCCUCCAAA

Holding throughout (settings): with glucosamine-6-phosphate
Variants of B1 are the subject of series [1]. In words: KM; higher = weaker cofactor use; RNA array. An outline of the steps: (§1)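 In situ transcription by E. coli RNA polymerase produced barcoded ribozyme variants on sequenced MiSeq chips, and a hybridised Cy3 probe tracked them at 37 °C. Glucosamine-6-phosphate was flowed in at 40 μM to 10 mM in HEPES/KCl/Mg(OAc)2 buffer. kcat and KM were taken from weighted Michaelis–Menten fits of kobs values from exponential decay fits.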

In series [2] the parent is B1. In words: self-cleavage kobs at 40 uM GlcN6P; higher = faster cleavage; RNA array. Put shortly: as §1
In series [3] the parent is B1. Nature of the series: self-cleavage kobs at 160 uM GlcN6P; higher = faster cleavage; RNA array. Put shortly: as §1
In series [4] the parent is B1. Nature of the series: self-cleavage kobs at 640 uM GlcN6P; higher = faster cleavage; RNA array. An outline of the steps:
as §1

The variants in series [5] derive from B1. In words: self-cleavage kobs at 2500 uM GlcN6P; higher = faster cleavage; RNA array. An outline of the steps:
as §1

The variants in series [6] derive from B1. In words: self-cleavage kobs at 10000 uM GlcN6P; higher = faster cleavage; RNA array. An outline of the steps:
as §1

± gives the standard error. For part of these data: Variants at the floor of the assay were thinned out.

The results in this text go back to the supplement of paper PMC7125110.

One may read the KM as the substrate concentration at which the rate is half of its maximum. For the variant AUAAAAGCGCCAGAACUACAGAAAUGUAGUAGACGAGGAGGAGGAUUAUCGAAUUUUCGGCGGAUGCCUCCAAA, the Michaelis constant (KM) in the series with glucosamine-6-phosphate [1] is 813 ± 360 µM. Moreover, in the series with glucosamine-6-phosphate [2], the “self-cleavage kobs at 40 uM GlcN6P” value amounted to 0.000743 ± 0.0001 s⁻¹. Also, in the series with glucosamine-6-phosphate [3], the “self-cleavage kobs at 160 uM GlcN6P” value came out at 0.00207 ± 0.00071 s⁻¹. For the same variant, in the series with glucosamine-6-phosphate [4], the “self-cleavage kobs at 640 uM GlcN6P” value was 0.00537 ± 0.0013 s⁻¹. Moreover, the “self-cleavage kobs at 2500 uM GlcN6P” value in the series with glucosamine-6-phosphate [5] was found to be 0.0106 ± 0.0024 s⁻¹. Moreover, the “self-cleavage kobs at 10000 uM GlcN6P” value with glucosamine-6-phosphate [6] stood at 0.0333 ± 0.01 s⁻¹. AUAAAAGCGCCAGAACUACAGAAAUGUAGUUGACGAGGAGAAGGCUUAUCGAAUUUUCGGCGGAUGCCUUCAAA: in the series with glucosamine-6-phosphate [2], the “self-cleavage kobs at 40 uM GlcN6P” value came to 9.09e-05 ± 2e-05 s⁻¹. Moreover, the “self-cleavage kobs at 2500 uM GlcN6P” value with glucosamine-6-phosphate [5] was 0.00174 ± 0.00052 s⁻¹. Moreover, the “self-cleavage kobs at 10000 uM GlcN6P” value with glucosamine-6-phosphate [6] came out at 0.00358 ± 0.00079 s⁻¹. In the case of AUAAAAGCGCCAUAACUACAGAAAUGUAGUUGACGAGGAGGAGGUUUCUCGAAUUUUCGGCGGAUGCCUCCAAA, the KM in the series with glucosamine-6-phosphate [1] stood at 3030 ± 610 µM.

Turning to AUAAAAGCGCCAGAACUACAGAAAUGUAGUUGACGAGGAGGUGGUUUAUCGAAUUUUCAGCGGAUGCCUCCAAA, the KM with glucosamine-6-phosphate [1] was 145 ± 23 µM. AUAAAAGCGCCAGAACUACAGAAAUGUAGUUGACGAGGAGAAGGUUUACCGAAUUUUCGGCGGAUGUCUCCAAA: in the series with glucosamine-6-phosphate [2], the “self-cleavage kobs at 40 uM GlcN6P” value was less than 1e-05 s⁻¹. For the variant AUAAAAGCGCCAGAACUACAGAAAUGUAGUUGACGAGGAGGAGGUUUAUCUAAUUUUCGGCGGAGGCCUCCAAA, the KM with glucosamine-6-phosphate [1] worked out at 63.4 ± 18 µM. On to AUAAAAGCGCCAGAACUACAGAAAUGUAGUUGACGUGGAGGAGGUUUAUCGAAUUUUCCGCGGAUGCCUCCAAA, for which, in the series with glucosamine-6-phosphate [2], the “self-cleavage kobs at 40 uM GlcN6P” value was less than 1e-05 s⁻¹. Besides, the “self-cleavage kobs at 640 uM GlcN6P” value with glucosamine-6-phosphate [4] was less than 1e-05 s⁻¹. In the series with glucosamine-6-phosphate [6], the “self-cleavage kobs at 10000 uM GlcN6P” value is less than 1e-05 s⁻¹.

Take AUAAAAGAGCCAGAACUACAGAAAUUUAGUUGCCGAGGAGGAGGUUUAUCGAAUUUUCGGCGGAUGCCUCCAAA: the “self-cleavage kobs at 40 uM GlcN6P” value in the series with glucosamine-6-phosphate [2] is less than 1e-05 s⁻¹. With AUAAAAGCGCCAGAACUACAGAAAUGUAGUUGACGAGGAGGAGGUUUAUCGAAUUCUCGGCAGAUGCCUCCAAA, the KM in the series with glucosamine-6-phosphate [1] stood at 135 ± 63 µM. On the same count and under the same terms, the same measure for AUAAAAGCGCCAGAACUACAGAAAUGUAGUUGACGUGGAGGAGGUUUAUCGAAUUUUCGGCGGAUGCCUCCAAA: 584 ± 170 µM; for AUAAAAGCGCCAGAACUACAGAAAUGUAGUUGACGCGGAGGAGGUUUAUCUAAUUUUCGGCGGAUGCCUCCAAA: 10.4 ± 3.3 µM; for AUAAAAGCGCCAGAACUACAGAAAUGUAGUUGACGAGGAUGAGGUUUAUCGAAUUUUGGGCGGAUGCCUCCAAA: 4730 ± 1300 µM. With AUAAAAGCGCCUGAACUACAGAAAUGUAGGUGACGAGGAGGAGGUUGUCCGAAUUUUCGGCGGAUGCCCGCAAA, the “self-cleavage kobs at 40 uM GlcN6P” value with glucosamine-6-phosphate [2] was less than 1e-05 s⁻¹. Also, the “self-cleavage kobs at 10000 uM GlcN6P” value with glucosamine-6-phosphate [6] is less than 1e-05 s⁻¹. Turning to AUAAAAGCGCCAGAACUACAGAAAUGUAGUUGGCAAGGAGGAGGUUAAUCGAAUUUUCGGCGGAUGUCUGCAAA, the “self-cleavage kobs at 40 uM GlcN6P” value with glucosamine-6-phosphate [2] was found to be 5.2e-05 ± 2.3e-05 s⁻¹. Besides, the “self-cleavage kobs at 10000 uM GlcN6P” value in the series with glucosamine-6-phosphate [6] was 6.3e-05 ± 1.7e-05 s⁻¹. Turning to AUAAAGGCGCCAGAACUACAGAAAUGUAGUUGACGAGGAGGAGGUGUAUCGAAUUUUCGGCGGAUGCCUCCAAA, the “self-cleavage kobs at 40 uM GlcN6P” value with glucosamine-6-phosphate [2] is less than 1e-05 s⁻¹. Moreover, the “self-cleavage kobs at 160 uM GlcN6P” value in the series with glucosamine-6-phosphate [3] was less than 1e-05 s⁻¹. In addition, the “self-cleavage kobs at 10000 uM GlcN6P” value with glucosamine-6-phosphate [6] was found to be 7.11e-05 ± 8.7e-06 s⁻¹. For the variant AUAAAAGCGCCAGAACUACAGAAAUGUAUUUGACGAGGAGGAGGUUUAUCUAAUUUUCGGCGGAUGCCUCCAAA, in the series with glucosamine-6-phosphate [1], the KM stood at 40.3 ± 12 µM.

In the case of AUAAAAGCGCCAGAACUACAGAAAUGUAGUUGACGAGGAGGAGGUUAAUCGAAUUUUCGGCGGGUGCCUCCAAA, the KM with glucosamine-6-phosphate [1] is 787 ± 380 µM. The “self-cleavage kobs at 40 uM GlcN6P” value with glucosamine-6-phosphate [2] was 0.000468 ± 8.5e-05 s⁻¹. Moreover, in the series with glucosamine-6-phosphate [3], the “self-cleavage kobs at 160 uM GlcN6P” value amounted to 0.00141 ± 0.00037 s⁻¹. For the same variant, the “self-cleavage kobs at 640 uM GlcN6P” value with glucosamine-6-phosphate [4] is 0.00552 ± 0.0012 s⁻¹. Moreover, the “self-cleavage kobs at 2500 uM GlcN6P” value in the series with glucosamine-6-phosphate [5] was 0.00614 ± 0.0013 s⁻¹. The “self-cleavage kobs at 10000 uM GlcN6P” value with glucosamine-6-phosphate [6] was determined as 0.0238 ± 0.0074 s⁻¹.

AUAAAAGCGCAAGAACUACAGAAAUGUAGUUGUCGAGGAGGAGGUUUAUCGAAUUUUCGGCGGAUGCCUCCAAA: the KM with glucosamine-6-phosphate [1] is 983 ± 40 µM. AUAAAAGCGCCAGAACUACAGAAAUGUAGUUGACGAGGAGGAGGUUUCUCGAAUUUUCGGCGGAGGCCUCCAAA: the “self-cleavage kobs at 40 uM GlcN6P” value in the series with glucosamine-6-phosphate [2] is less than 1e-05 s⁻¹. Moreover, the “self-cleavage kobs at 160 uM GlcN6P” value with glucosamine-6-phosphate [3] is less than 1e-05 s⁻¹. Consider AUAAAAGCGCCAGAACUACAGAAAUGUAGUUGGCGAGUAGGAGGUUUAUCGAAUUUUCGGCGGAUGCCUCCAAA, for which the KM in the series with glucosamine-6-phosphate [1] stood at 47.2 ± 22 µM.
